Results published in PMC9592583.

Biological target: proMbxA (6H-MbxA, non-acylated precursor of the RTX toxin MbxA from Moraxella bovis) (Moraxella bovis)
Assay: SEC-MALS; proMbxA species of SEC peak 1, 1.3-2.5 mg/ml, 200 ul on Superose 6 Increase 10/300 GL; 50 mM TRIS pH 7.8, 100 mM NaCl, 10 mM CaCl2

“proMbxA (6H-MbxA, non-acylated precursor of the RTX toxin MbxA from Moraxella bovis) (natural protein)” gave a stoichiometry N of 2.
